Drawing on patent US20090208476A1 (published 2009), this text covers Kd for 3 molecules.

The target in experiment [1] is T1, Plasmodium falciparum MSP1-19 (C-terminal fragment of merozoite surface protein 1) (Plasmodium falciparum, UniProt Q8I0U8 1607-1699).
T1 construct: domain: MSP1-19; also called Pf MSP1-19; PfMSP1-19
T1 sequence: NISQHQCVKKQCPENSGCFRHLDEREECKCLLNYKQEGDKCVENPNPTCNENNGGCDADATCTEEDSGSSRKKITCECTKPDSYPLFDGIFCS
In words: SPR, MSP1-19 immobilised on CM5 chip. In general terms: Surface plasmon resonance follows binding to a sensor surface in real time, without labels.

Experiment [2] concerns the target T2, DC-SIGN (DC-specific intercellular adhesion molecule 3-grabbing nonintegrin) (UniProt Q9NNX6 62-404, limits assumed).
T2 sequence (looked up): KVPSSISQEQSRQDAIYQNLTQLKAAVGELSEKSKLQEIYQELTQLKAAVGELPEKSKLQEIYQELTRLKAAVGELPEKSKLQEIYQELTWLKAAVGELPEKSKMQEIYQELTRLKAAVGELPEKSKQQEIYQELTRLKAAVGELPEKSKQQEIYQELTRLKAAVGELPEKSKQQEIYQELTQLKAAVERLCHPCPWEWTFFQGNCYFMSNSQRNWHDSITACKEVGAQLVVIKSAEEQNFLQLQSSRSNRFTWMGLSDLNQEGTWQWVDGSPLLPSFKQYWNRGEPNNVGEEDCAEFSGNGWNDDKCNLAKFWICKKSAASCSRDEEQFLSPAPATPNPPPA
In words: SPR, DC-SIGN immobilised on CM5 chip, equilibrium fit Req=Rmax/(1+(Kd/C)).

In experiment [3] the target is T3, CD4 (UniProt P01730 26-396).
T3 construct: Bought protein; also called CD4 (Protein Sciences Corp.)
In words: SPR, CD4 immobilised on CM5 chip, equilibrium fit Req=Rmax/(1+(Kd/C)).

Where no end group is shown, it is not given here.

A word on the Kd: it is the constant that tells how readily two partners part at equilibrium. A high value points to lower affinity.

B1: GST-Azu 36-89 (GST fused to azurin amino acids 36 to 89) (other)
chain: {GST}-PGNLPKNVMGHNWVLSTAADMQGVVTDGMASGLDKDYLKPDDSRVIAHTKLIGS
modifications: also: GST fusion, vector linker residues not given here
notes: also called pGST-azu 36-89 product; not shown: glutathione S-transferase from the commercial vector pGEX-5X
In turn, B1 registered a Kd in experiment [1] of 20.9 nM.

B2: GST-Azu 88-113 (GST fused to azurin amino acids 88 to 113) (other)
chain: {GST}-GSGEKDSVTFDVSKLKEGEQYMFFCT
modifications: also: GST fusion, vector linker residues not given here
notes: not shown: glutathione S-transferase from the commercial vector pGEX-5X
Molecule B2 showed a Kd in experiment [2] of 5.98 nM.

B3: GST-Azu 36-128 (GST fused to azurin amino acids 36 to 128) (other)
chain: PGNLPKNVMGHNWVLSTAADMQGVVTDGMASGLDKDYLKPDDSRVIAHTKLIGSGEKDSVTFDVSKLKEGEQYMFFCTFPGHSALMKGTLTLK
notes: The azurin fragment was cloned into the BamHI/EcoRI sites of pGEX-5X; not shown: glutathione S-transferase from the commercial vector pGEX-5X
Regarding B3, the results for the Kd in experiment [1] and in experiment [3] were 24.5 nM and 0.34 nM, respectively.
